Experimental findings from patent publication US11492376B2, “Toxoplasma gondii GRA8-derived recombinant peptides and composition for preventing or treating cancer comprising the same” (Industry—University Cooperation Foundation Hanyang …, priority 2019, dated 2022) are described below.

The subject of one data set is HCT116 xenografts. As to the kind of experiment: HCT116 xenograft mouse model, antitumor activity. The data set is classed as in vivo, nude mouse.
Data set [1] is described as follows: Serum cytokine response in tumor-bearing mice. The protocol: Immunoblotting was performed with anti-PKCα, anti-ATP5A1, anti-SIRT3 or anti-actin. […] (B) The schematic diagram of a xenograft model treated with rVector (upper). HCT116-expressing ATP5A1 WT and mutant cells were subcutaneously injected into the flank of nude mice. […] Each group included 10 mice. […] (C) Humoral immune responses in BALB/C mice. The mice were immunized via each route (intravenous injection or intraperitoneal injection) every third day, and subjected to blood collection on day 40. […] The values are expressed as mean±standard deviation for absorbance (OD) at 450 nm. Each group included five mice. (D) Cytokine response for rATRAM-GRA8-M/AS in tumor-bearing mice. As described in the method section, HCT116 cells were subcutaneously injected into the flank of a BALB/c mouse. A serum cytokine level was measured on day 30 after administration. Each group included 10 mice.
Since immunogenicity is closely related with safety and efficacy, it is one of the critical factors for development of therapeutic proteins. Therefore, by monitoring the production of antibodies against rATRAM-GRA8-M/AS in immunized mice, the immunogenicity of rATRAM-GRA8-M/AS was investigated. After three consecutive injections of rATRAM-GRA8-M/AS, a level of IgG antibody was analyzed using enzyme-linked immunosorbent assay (ELISA).

Another data set concerns ATP5A1, SIRT3 and ATP5C1. The experiment in a line: Target binding and OXPHOS profile in xenograft tumor lysates. It counts as in vivo, nude mouse. The conditions noted are these: day 15. The protocol: The length and width of a tumor were measured using calipers every third day for 30 days. On day 15 after administration, the mice were euthanized, and the interaction with GRA8, acetylation levels of ATP5A1 or expression of OXPHOS was analyzed (A, lower). The representative images of tumors from mice treated with rATRAM-GRA8-M/AS or mutants on day 15 (right). […] Significant differences (* P<0.05; ** P<0.01; *** P<0.001) were determined by comparison with rVector. Each group included 10 mice. Data represents two independent experiments with similar results],
For immunoprecipitation, cells were obtained, and then lysed in an NP-40 buffer supplemented with a complete protease inhibitor cocktail (Roche). After pre-purification with A/G agarose beads at 4° C. for 1 hour, a whole cell lysate was used for immunoprecipitation with indicated antibodies. Generally, 1 to 4 μg of commercial antibodies were added to 1 ml of the cell lysate, and incubated at 4° C. for 8 to 12 hours. After the addition of the protein A/G agarose beads for 6 hours, the immunoprecipitate was washed with a lysis buffer several times and heated for 5 minutes to be eluted with an SDS loading buffer.
For immunoblotting, polypeptides were subjected to electrophoresis (PAGE) with an SDS-polyacrylamide gel, and then transferred to a PVDF membrane (Bio-Rad) for separation. Immunodetection was performed with a specific antibody. Antibody binding was visualized by chemiluminescence (ECL; Millipore) and detected by a Vilber chemiluminescence analyzer (Fusion SL 3; Vilber Lourmat).

The next data set addresses T1, complex V OXPHOS (Homo sapiens, UniProt P25705).
T1 construct: rATRAM-GRA8-M/AS enhanced complex V OXPHOS activity, mitochondrial mass and mitochondrial DNA content via SIRT3 and PKCα in HCT116 cells; endogenous in cells; host or cells: HCT116 cells
As to the kind of experiment: Mitochondria complex V OXPHOS activity assay in HCT116 cells. The data set is classed as cell-based. The protocol: (§1) FIGS. 4A, 4B, 4C, 4D and 4E show HCT116 cell death by rATRAM-GRA8-M/AS-induced mitochondrial activation [(A and B) HCT116 cells were incubated with WT rGRA8 or rATRAM-GRA8-M/AS and its mutants for indicated times, and then cell viability was measured with an MTT assay. […] The cells were stimulated with rATRAM-GRA8-M/AS for 1 day and subjected to enzymatic activity of OXPHOS V, and (C) MitoTracker fluorescence signals were assessed by flow cytometry. (D) A bar graph indicates a mitochondrial mass (MFI), and (E) the mtDNA content of BMDM was measured by quantitative real-time PCR. The mtDNA content was normalized by nuclear DNA. Significant differences were determined by comparison with control treatment (** P<0.01; *** P<0.001). Data represents five independent experiments with similar results].
The activity of complex V was measured using a MitoTox Complex V OXPHOS Activity Microplate Assay kit manufactured by Abcam (ab109907, MA, Cambridge) according to the manufacturer's instructions. The activity of complex V was measured by monitoring the change in absorbance at 340 nm for 1 hour at 30° C. Oligomycin (Sigma, 04876) was used as a positive control for the assay.

A further data set relates to HCT116 cells. As to the kind of experiment: MTT assay of cell viability, HCT116 cells. The data set is classed as cell-based, human. The protocol:
FIGS. 1A, 1B and 1C: confirms that rGRA8 treatment increases HCT116 cell death by mitochondria pathways [(A and B). Various cancer cells were incubated with WT rGRA8 (20 μg/ml) and its mutants for indicated times and then cell viability was measured by MTT analysis (upper) and αATP5A1, αSIRT3 or αActin immunoblotting (lower) was performed. […] The cells were incubated with WT rGRA8 for indicated times and subjected to IP with αLys-AC or αHis and IB with αATP5A1, αATP5C1, αSIRT3, αPGC-1, αPKCα or αActin. Data represents five independent experiments with similar results. Significant differences were determined by comparison with rVector treatment (** P<0.01; *** P<0.001)].
as §1
As described in Non-Patent Document 1, the cell viability for a non-treated group was measured by an MTT assay. After incubation for an indicated time, 5 mg/ml of a 3-(4,5-dimethyl thiazol-2-yl)-2,5-diphenyltetrazoliumbromide (MTT) solution was added to a medium, and the cells were further incubated for 4 hours. Subsequently, all of the medium was removed, the same volume of a dimethyl sulfoxide (DMSO) solution was added for 15 minutes to dissolve formazan. Using a UV/VIS spectrophotometer, each well of a plate was measured at 540 nm to measure relative cell viability.
(Formazan colour is commonly taken as a measure of viable cells.)

Where [2] appears, read: BALB/c mice, versus negative control.

B1: (GLAGLAGLLGLEGLLGLPLGLLEGLWLGLELEGN)2-GG-ATATTTTTTR-GG-YRFTVQTTQN (protein)
chain: GLAGLAGLLGLEGLLGLPLGLLEGLWLGLELEGNGLAGLAGLLGLEGLLGLPLGLLEGLWLGLELEGNGGATATTTTTTRGGYRFTVQTTQN
modifications: His tag; rATRAM-G8-M/AS
Regarding B1, the “growth of tumors which started to initially grow” value with HCT116 xenografts (20 μg/kg, intraperitoneal injection (FIG. 6A)) is reported as “inhibited the growth of tumors”. The “growth of actively growing tumors” value in the data set with HCT116 xenografts (20 μg/kg, intraperitoneal injection (FIG. 6B)) is on record as “inhibited the growth”. Moreover, the “fold improvement of IC50 compared with rGRA8 (anti-tumor activity)” value in the data set with HCT116 xenografts (HCT116 xenograft) is 500 fold. In addition, the “IC50 (antitumor activity in xenograft)” value with HCT116 xenografts (HCT116 xenograft mice, intraperitoneal) worked out at 20 µg/kg. Also, in the data set with HCT116 xenografts (HCT116 xenograft, effect dependent on PKCα, SIRT3, ATP5A1 and acetylation state of K506 and K531), the “tumor size and tumor growth” value was “a decrease in tumor size and delayed tumor growth”. For the same molecule, the “fold improvement of IC50 compared with rGRA8 (anti-tumor activity)” value in the data set on HCT116 xenografts (HCT116 xenograft, listed as rATRAM-G8-M/AS) is “approximately 500 fold”. Moreover, in data set [1] (setting [2]), the “serum IL-1β level” value is given as “almost similar to that of the negative control”, the “serum IL-6 level” value is listed as “almost similar to that of the negative control” and the “serum TNF-α level” value is listed as “almost similar to that of the negative control”. The “production of inflammatory cytokines” value in data set [1] (tumor-bearing mice, serum, day 30) is listed as “negligible”. In addition, in the data set with ATP5A1, SIRT3 and ATP5C1, the “ATP5A1 deacetylation level in tumor lysates” value was “increased”; the “binding of rGRA8 to ATP5A1, SIRT3 and ATP5C1 in vivo” value is “significantly increased”; the “mitochondrial protein biosynthesis level in tumor lysates” value was “increased”. Moreover, the “complex V OXPHOS activity” value with complex V OXPHOS (HCT116 cells, 1 day, via SIRT3 and PKCα) is reported as “enhanced”. For the same molecule, the “mitochondrial activity (Oxphos V activity, mitochondrial mass and ATP production) in cancer cells” value with complex V OXPHOS (summary statement, FIG. 4) is given as “induced”. In the data set with HCT116 cells (HCT116 cells), the “fold improvement of IC50 compared with rGRA8 (cell death of cancer cell line)” value turned out to be 200 fold. For the same molecule, the “IC50 (HCT116 cell death)” value in the data set with HCT116 cells (HCT116 cells, MTT (FIG. 4A)) stood at 0.1 mg/L. In addition, the “fold improvement of IC50 compared with rGRA8 (cell death of cancer cell line)” value with HCT116 cells (HCT116 cells, listed as rATRAM-G8-M/AS) is recorded as “approximately 200 fold”. Also, the “cell death in HCT116 cells” value with HCT116 cells (dose response, MTT (FIG. 4A)) is “induced cell death in HCT116 cells in a dose-dependent manner”.
